T1: GST-YcgR-HA fusion (wild-type YcgR of E. coli) (E. coli, UniProt P76010 1-244)
T1 sequence (looked up): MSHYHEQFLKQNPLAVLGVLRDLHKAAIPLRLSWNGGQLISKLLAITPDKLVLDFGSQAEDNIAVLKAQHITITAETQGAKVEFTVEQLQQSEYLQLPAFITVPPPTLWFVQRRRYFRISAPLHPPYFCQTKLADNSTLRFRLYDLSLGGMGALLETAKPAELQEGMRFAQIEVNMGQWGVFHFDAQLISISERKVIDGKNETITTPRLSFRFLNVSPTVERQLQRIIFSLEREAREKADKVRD


Molecular target: T1, GST-YcgR-HA fusion (wild-type YcgR of …)
Test: pull-down

| fold increase of binding with c-di-GMP at 5 μM or higher over no added c-di-GMP [fold] | Binder |
| --- | --- |
| ~2 | FliM (E. coli) (natural protein, UniProt P06974 1-334, looked up) MGDSILSQAEIDALLNGDSEVKDEPTASVSGESDIRPYDPNTQRRVVRERLQALEIINERFARHFRMGLFNLLRRSPDITVGAIRIQPYHEFARNLPVPTNLNLIHLKPLRGTGLVVFSPSLVFIAVDNLFGGDGRFPTKVEGREFTHTEQRVINRMLKLALEGYSDAWKAINPLEVEYVRSEMQVKFTNITTSPNDIVVNTPFHVEIGNLTGEFNICLPFSMIEPLRELLVNPPLENSRNEDQNWRDNLVRQVQHSQLELVANFADISLRLSQILKLNPGDVLPIEKPDRIIAHVDGVPVLTSQYGTLNGQYALRIEHLINPILNSLNEEQPK |
| ~2 | FliG (E. coli) (natural protein, UniProt P0ABZ1 1-331, looked up) MSNLTGTDKSVILLMTIGEDRAAEVFKHLSQREVQTLSAAMANVTQISNKQLTDVLAEFEQEAEQFAALNINANDYLRSVLVKALGEERAASLLEDILETRDTASGIETLNFMEPQSAADLIRDEHPQIIATILVHLKRAQAADILALFDERLRHDVMLRIATFGGVQPAALAELTEVLNGLLDGQNLKRSKMGGVRTAAEIINLMKTQQEEAVITAVREFDGELAQKIIDEMFLFENLVDVDDRSIQRLLQEVDSESLLIALKGAEQPLREKFLRNMSQRAADILRDDLANRGPVRLSQVENEQKAILLIVRRLAETGEMVIGSGEDTYV |
